experiment: soluble on expression in E. coli; label from the status in PepcDB or PDB records

Q: Which “soluble on expression in E. coli” value does the source give for “MTTAHRPTFHPARGGTARGEGDLSKLSNQYSSKDMPSHTKMKYRQTGQETEADLRKKDLRRELEDKERNAIREKRARDSASSSSSHSKRQRMDQIAAESAASVDADEAVDELNSSDDDDSDEDDTAALMAELEKIKKERAEEKAARDEEIKEKEEKQRMENILAGNPLLNDTPAGSSTSGGDFTVKRRWDDDVVFKNCAKGVEERKKEVTFINDAIRSEFHKKFMDKYIK” here?
A: soluble

Q: Which “soluble on expression in E. coli” value does the source give for “MTTALYLEDAYKTSCETEVIKVEGNKVFVKETVFYPTGGGQECDTGVIVQDGSVFEVEKVKKEQGEIVHYIKDEAQVKLGPVKLEINWERRHNLMRHHSLLHLIGAVVYEKYGALCTGNQIYPDKARIDFNELQELSSVEVEEIVEEVNKLIKQNKEISTRYMSREEAENAVGMIKTAINLLPTTIQEIRIVTIENLDEQACGGTHVKNTSEIGTLVIDKVKSKGKQNRRFEVRAI” here?
A: not soluble

Q: Which “soluble on expression in E. coli” value does the source give for “MTTATSERQKTLLFKAAERQWKEEFAGKETDIRKVDCNIYKGILYQLEIRQVFLDTSLSLKKLSALLETNQTYLSNVVNKYFGCNLKELVNTYRVEYAKELLCSRRCALTELPCSCGFASKSAFYSAFSRIVGVSPLSYQTQERRLEHHHHHH” here?
A: soluble

Q: With “MTTCFCTGARSGPTVAISADLHQALRGIVAQRMATDPAHDLAHLDRVWVNVQAIASPGADRDVLLAASYLHDLVNLPKNAPDRHTASRRSADEAAPILRDLGFDEAQIAATGHAIAAHSFSAGISPESEEARILRDADRLDALGAIGIARNFSVSGSLGRALYDPADPFCERRTPDDALYSLDHWRVKLLSLPQGMLTDKGRALAEARIALMLRFLDDFAAEIGTPLPEGWTRGLEHHHHHH” as the sequence, how does the “soluble on expression in E. coli” value read?
A: soluble

Q: Which “soluble on expression in E. coli” value does the source give for “MTTERVLQYPNLLKIVPYLSYSKRMELSKVSPEFRSIHSRLDYSLKTMSFSQDYGAISEEGPIEVGSGILKVESIEYIFEYDENMDQVKIKCLLAPELVRFSNDKSIIRRYFHYYLAASQRIVQHVKLRESDSPFRNLQSLKIPSISWTLNGAREYPQFINFQNHVFEKLELINYESIVLTETQVKSCKHLVLKKETIYQEYTVGNENSAIRNFYCILSNMKLELVLGLNYVESFILLCNRLLLDTLHIGSSVTAIFIKEPLLNVWRTLLERYEDSRGTFMGSGHRKCAILSTDNNIKVAVFENYFGKDSNGKESFTAIKMNNNVEFDA” here?
A: not soluble

Q: Which “soluble on expression in E. coli” value does the source give for “MTTGTEEARIPLDPFVTDLDGESARLRAAGPLAAVELPGGVPVWAVTHHAEAKALLTDPRLVKDINVWGAWRRGEIPADWPLIGLANPGRSMLTVDGAEHRRLRTLVAQALTVRRVEHMRGRITELTDRLLDELPADGGVVDLKAAFAYPLPMYVVADLMGIEEARLPRLKVLFEKFFSTQTPPEEVVATLTELASIMTDTVAAKRAAPGDDLTSALIQASENGDHLTDAEIVSTLQLMVAAGHETTISLIVNAVVNLSTHPEQRALVLSGEAEWSAVVEETLRFSTPTSHVLIRFAAEDVPVGDRVIPAGDALIVSYGALGRDERAHGPTADRFDLTRTSGNRHISFGHGPHVCPGAALSRMEAGVALPALYARFPHLDLAVPAAELRNKPVVTQNDLFELPVRLAHHHH” here?
A: soluble

Q: Which “soluble on expression in E. coli” value does the source give for “MTTHQDGNADGASATARTVSLDVVVVGAGTSGCYAAATVADAGYDVVIVERKDETEAGHIACGDALKGASDFPDAIPKSQLEPAFTNTDVDHGRFEIPQEDTVLEIPVPGELAVIDRWEYGRCLIEGANDSGVEFHYDTVVQDVLQDDSGRVTGVKAMRKGDPVTYEGDMVIDGAGALSILQDKTDLEAATFDTNVQYSQFCSAYREIIEVDEPVEWDDALVFKPTERSAGYLWYFPRTDTEINAGLGFQMNEEPMELVDDLKRDLQGRSEFEGAEVQDKLGAALPTRRPYDSAVAPGFMAVGDAAGHVNPTTGGGIAGAAYAGTYAAEQAIEAIEAGRTDDEAALWEYNERVMDHFGARYAALDVYNIFTTAYDVDDLMALLAALPGEKLAEALYGGSTSIGLGLKLKMAVKSIGHLGTIRDLYQTKKAADRLLEHYESYPSDRSGFEAWQRERDSIMDDIYEVTGAEPKYLEHHHHHH” here?
A: soluble

Q: Which “soluble on expression in E. coli” value does the source give for “MTTKKADYIWFNGEMVRWEDAKVHVMSHALHYGTSVFEGIRCYDSHKGPVVFRHREHMQRLHDSAKIYRFPVSQSIDELMEACRDVIRKNNLTSAYIRPLIFVGDVGMGVNPPAGYSTDVIIAAFPWGAYLGAEALEQGIDAMVSSWNRAAPNTIPTAAKAGGNYLSSLLVGSEARRHGYQEGIALDVNGYISEGAGENLFEVKDGVLFTPPFTSSALPGITRDAIIKLAKELGIEVREQVLSRESLYLADEVFMSGTAAEITPVRSVDGIQVGEGRCGPVTKRIQQAFFGLFTGETEDKWGWLDQVNQ” here?
A: soluble

Q: With “MTTLLRLATAGSVDDGKSTLIGRLLYDSKAVMEDQWASVEQTSKDRGHDYTDLALVTDGLRAEREQGITIDVAYRYFATPKRKFIIADTPGHIQYTRNMVTGASTAQLVIVLVDARHGLLEQSRRHAFLASLLGIRHLVLAVNKMDLLGWDQEKFDAIRDEFHAFAARLDVQDVTSIPISALHGDNVVTKSDQTPWYEGPSLLSHLEDVYIAGDRNMVDVRFPVQYVIRPHTLEHQDHRSYAGTVASGVMRSGDEVVVLPIGKTTRITAIDGPNGPVAEAFPPMAVSVRLADDIDISRGDMIARTHNQPRITQEFDATVCWMADNAVLEPGRDYVVKHTTRTVRARIAGLDYRLDVNTLHRDKTATALKLNELGRVSLRTQVPLLLDEYTRNASTGSFILIDPDTNGTVAAGMVLRDVSARTPSPNTVRHRSLVTAQDRPPRGKTVWFTGLSGSGKSSVAMLVERKLLEKGISAYVLDGDNLRHGLNADLGFSMADRAENLRRLSHVATLLADCGHLVLVPAISPLAEHRALARKVHADAGIDFFEVFCDTPLQDCERRDPKGLYAKARAGEITHFTGIDSPYQRPKNPDLRLTPDRSIDEQAQEVIDLLESSS” as the sequence, how does the “soluble on expression in E. coli” value read?
A: not soluble

Q: Which “soluble on expression in E. coli” value does the source give for “MTTMNPFLVQSTLPYLAPHFDQIANHHYRPAFDEGMQQKRAEIAAIALNPQMPDFNNTILALEQSGELLTRVTSVFFAMTAAHTNDELQRLDEQFSAELAELANDIYLNGELFARVDAVWQRRESLGLDSESIRLVEVIHQRFVLAGAKLAQADKAKLKVLNTEAATLTSQFNQRLLAANKSGGLVVNDIAQLAGMSEQEIALAAEAAREKGLDNKWLIPLLNTTQQPALAEMRDRATREKLFIAGWTRAEKNDANDTRAIIQRLVEIRAQQATLLGFPHYAAWKIADQMAKTPEAALNFMREIVPAARQRASDELASIQAVIDKQQGGFSAQPWDWAFYAEQVRREKFDLDEAQLKPYFELNTVLNEGVFWTANQLFGIKFVERFDIPVYHPDVRVWEIFDHNGVGLALFYGDFFARDSKSGGAWMGNFVEQSTLNKTHPVIYNVCNYQKPAAGEPALLLWDDVITLFHEFGHTLHGLFARQRYATLSGTNTPRDFVEFPSQINEHWATHPQVFARYARHYQSGAAMPDELQQKMRNASLFNKGYEMSELLSAALLDMRWHCLEENEAMQDVDDFELRALVAENMDLPAIPPRYRSSYFAHIFGGGYAAGYYAYLWTQMLADDGYQWFVEQGGLTRENGLRFREAILSRGNSEDLERLYRQWRGKAPKIMPMLQHRGLNI” here?
A: soluble

Q: Which “soluble on expression in E. coli” value does the source give for “MTTMRTGSQIFMRSGQWNELWKEKNVPLRFTNPNISFDGSERTKAEIEVVDSQEKSLVTRNMQIIPWQHDIANLHLPERDSLILMPCATRTVGRRLTARNIGLADTRGNCDISWPGVMIKIYGQQAVTSARSHQKTAVLFSVRRAQVAAMILTYPWLLSEPVRVIARYSGVSVGTVSNALKIFQKAGYLAETMDGHRLVNAELFLSAWARAYPTGLGADLELLRGKAQQLPPYNLEHLGVKASESAVSDHISDGQSASLYLGEETFSPKVIKELRLVKNPAGTITLRRAFWNTIDVKEIPEAIVYADLLNSDDARLWDVAQIIKAIILKRARGDWLGDQDG” here?
A: not soluble

Q: With “MTTQIELGDITVDVVLKDIKNIHLSVYPPNGRVKISAPLRMDIDTIRVFAISRLGWIKQQRKKFQEQERETPREYLDLESHYVWGKRYLLKVIEVNEAPSVELKHSKMILRVRPGTDDKKRQSIIDAWYREQLKKAIPPLIARWEPLLGVKVERFFVQRMRTKWGSCNHKARNIRLNTELAKKPEECLEYTIVHEMAHILEPTHNSHFITLMDQFMPKWQFCRDRLNQLPVRHEDWIYLEHHHHHH” as the sequence, how does the “soluble on expression in E. coli” value read?
A: soluble

Q: For “MTTRQIKIVPKLIAIFTGKAAVRAAWGGRGSGKTRSFALMAALKGYQFGMGGISGTILCARQFQNSLAESSLEEIKRAIEGHDFLKDYYKVGESSIKSIDGRIAFQFSGLDRNIASIKSMGRILLCWVDEAEPVTETAWQTLIPTLREEGEGWRAELWVTWNPLRDNAPVERRFRFSNNEAIKRVEINWSDNPKFPKILNEARLDDLKNRPETYKHIWEGAYLTAVQGAYYQKEMLAAEQEGRIGRVARDPLMQMRAFWDIGGTGAKADATAIWIAQFVGREIRVLDYYEAQGQPLSEHIGWLRRNGYEKALMVLPHDGATRDRVHNVSFESALNDAGFETQVIPHQGAGAVKMRIEAVRRILPSVWFHEETTVAGRKALNWYHEKWDEKRGIGLGAEHDWSSHGADAFGLMCIVYEAPRIKPQQERYRAIEREAASWMAF”, which “soluble on expression in E. coli” value is on record?
A: not soluble

Q: For “MTTRVLYVRHAHAHGRQTWGGDDNKRPLDKKGRRQAEMLVPMLLPFKPTAIYSAVPDRCQATALPLADELGLDVSVNRLFGDDAWETDPEACKKRFTDVVAQGGVPMIVGQGDIIPEMIKWFSENGTLPIDEKIKAKKGSVWVLSFHDGVFTGADYLEHHHHHH”, which “soluble on expression in E. coli” value is on record?
A: soluble

Q: Which “soluble on expression in E. coli” value does the source give for “MTTTLFSSRIIQSALDFDVYKVNMMSAVAALYPDAMVSYKFIVRSEEDLSELLPEVKAEVLKLQDVRFTEDEIAYMKRVAPYLKPEFVEALRHFRFNPQSDVSFHNKTMSDGSSQLRITINGLWKETILYETIIMSIVSEVRSRQRWSDIPFEQFQTVLEDKVRYLKAELERRNITNFKFADMSTRRRFSFQAQRTMLEYLSKELPQCLTGTSNYHLARELDLTPIGTVAHEWFMGHQALVNVRDSQKIALQRWQKMFNGALGIALTDTIGIDAFLKDFDEELSHAYVGVRHDSGCPFTWGEKMIAHYESLGIDPMTKTLVFTDGLNFEQALDICEHFQGRVQVSFGIGTSLANDMGNYVNDQGEAYQPLSIVIKMVTCNGSPVAKISDEPEKAMCEDIFFLMNLKRRFEQPLDLNECRKLIDRLESEGQNYLIDALEHHHHHH” here?
A: soluble

Q: With “MTTTTLTVPFRFDVVGSLLRPASLKKAHEQLAAGTITRDQELEIQHTEIKRVVAEQVKLGLKAVTDGEFSRSWWHLDFLWGLTGVGKYDYHQSYKFKGDHTRTDNAELIGKVAYNPDHPFFAAFEYLQSIVPAGVLAKQTIPSPTMLFRDNRSDNWTKFYDSWDAYLNDLAQAYHDTIQHFYDLGCRYIQLDDTTWAFLISKLNDPEADHAAYTKWATDAVTVINAALADLPSDLTVTTHICRGNFKSTYLFSGSYDVVAPYLGQLNYDGLFLEYDNERAGGFEALDQIWNHDDHKRIVLGLVTSKFPELEKTTVIKERVQAATTKVPLRNLALSTQCGFASTEEGNQLTEAQQWAKLALVIGTAKEVWSEALEHHHHHH” as the sequence, how does the “soluble on expression in E. coli” value read?
A: not soluble

Q: For “MTVAKAIFIKCGNLGTSMMMDMLLDERADREDVEFRVVGTSVKMDPECVEAAVEMALDIAEDFEPDFIVYGGPNPAAPGPSKAREMLADSEYPAVIIGDAPGLKVKDEMEEQGLGYILVKPDAMLGARREFLDPVEMAIYNADLMKVLAATGVFRVVQEAFDELIEKAKEDEISENDLPKLVIDRNTLLEREEFENPYAMVKAMAALEIAENVADVSVEGCFVEQDKERYVPIVASAHEMMRKAAELADEARELEKSNDAVLRTPHAPDGKVLSKRKFMEDPE”, which “soluble on expression in E. coli” value is on record?
A: soluble

Q: Which “soluble on expression in E. coli” value does the source give for “MTVERIAEQPLDSELGHFNLITYRDSVEGDVHLALTLGKVCAEEPTLVRVHNMDPLRDLLQVNQPGRWSLRAAMTKVAEAGSGVVLLLGHQIGGDDLLAHVREIASAPAPAPKATTTYSTVGAGSQILRDLGVRKMRLLSAPMRFNAISGFDLEVVEYLPA” here?
A: soluble

Source: the DeepSol protein solubility set
